Test results from patent US20150064134A1.

Target: MAPKAP-K2(h) (human) (UniProt P49137)
Test: cell-based or functional assay

Work on MMI-0100 (peptide) yielded an IC50 (radiometric kinase activity assay) of 22 µM.
